{"source": "paper PMC6631030", "about": "“Unraveling Sugar Binding Modes to DC-SIGN by Employing Fluorinated Carbohydrates” (Molecules, 2019)", "proteins": {"B1": {"name": "dendritic cell-specific intercellular adhesion molecule 3-grabbing non-integrin (DC-SIGN) full extracellular domain, tetramer (domain or fragment, UniProt Q9NNX6 70-404, looked up)", "chain": "EQSRQDAIYQNLTQLKAAVGELSEKSKLQEIYQELTQLKAAVGELPEKSKLQEIYQELTRLKAAVGELPEKSKLQEIYQELTWLKAAVGELPEKSKMQEIYQELTRLKAAVGELPEKSKQQEIYQELTRLKAAVGELPEKSKQQEIYQELTRLKAAVGELPEKSKQQEIYQELTQLKAAVERLCHPCPWEWTFFQGNCYFMSNSQRNWHDSITACKEVGAQLVVIKSAEEQNFLQLQSSRSNRFTWMGLSDLNQEGTWQWVDGSPLLPSFKQYWNRGEPNNVGEEDCAEFSGNGWNDDKCNLAKFWICKKSAASCSRDEEQFLSPAPATPNPPPA", "notes": "DC-SIGN, full extracellular domain (ECD), residues 70-404; the fragment was inserted in pET15b via NdeI and BamHI, and the protein was purified on mannose-Sepharose, not by a tag; The results call it 'tetrameric full-length DC-SIGN', the methods give the ECD 70-404; also called DC-SIGN tetramer; tetrameric DC-SIGN"}}, "target": "the molecule itself", "assay": "negative-stain TEM; purified refolded DC-SIGN ECD, negative staining, Jeol JEM-1230", "data": [{"protein": "B1", "values": [{"measurement": "stoichiometry N", "result": 4}]}]}
